Assay results published in patent CN116514962A (THE AFFILIATED HOSPITAL OF GUANGZHOU MEDICAL UNIV GUANGZHOU …, dated 2023).

T1: 人冠状病毒OC43 N蛋白 (人冠状病毒OC43 (HCoV-OC43), UniProt P33469 1-448)
T1 sequence: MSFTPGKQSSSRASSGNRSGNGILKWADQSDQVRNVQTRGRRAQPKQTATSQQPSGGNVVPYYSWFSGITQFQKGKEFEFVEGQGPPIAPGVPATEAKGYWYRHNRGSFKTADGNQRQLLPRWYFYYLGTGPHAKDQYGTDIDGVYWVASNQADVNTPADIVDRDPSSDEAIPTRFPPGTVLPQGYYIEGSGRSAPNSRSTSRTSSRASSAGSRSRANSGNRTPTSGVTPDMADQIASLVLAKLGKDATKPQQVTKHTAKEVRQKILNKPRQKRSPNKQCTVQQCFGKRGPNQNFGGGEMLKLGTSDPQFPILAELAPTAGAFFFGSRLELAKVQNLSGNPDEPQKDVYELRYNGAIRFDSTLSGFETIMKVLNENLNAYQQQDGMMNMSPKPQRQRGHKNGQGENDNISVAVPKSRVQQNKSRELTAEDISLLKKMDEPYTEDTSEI

T2: 人冠状病毒HKU1 N蛋白 (人冠状病毒HKU1 (HCoV-HKU1), UniProt Q5MQC6 1-441)
T2 sequence: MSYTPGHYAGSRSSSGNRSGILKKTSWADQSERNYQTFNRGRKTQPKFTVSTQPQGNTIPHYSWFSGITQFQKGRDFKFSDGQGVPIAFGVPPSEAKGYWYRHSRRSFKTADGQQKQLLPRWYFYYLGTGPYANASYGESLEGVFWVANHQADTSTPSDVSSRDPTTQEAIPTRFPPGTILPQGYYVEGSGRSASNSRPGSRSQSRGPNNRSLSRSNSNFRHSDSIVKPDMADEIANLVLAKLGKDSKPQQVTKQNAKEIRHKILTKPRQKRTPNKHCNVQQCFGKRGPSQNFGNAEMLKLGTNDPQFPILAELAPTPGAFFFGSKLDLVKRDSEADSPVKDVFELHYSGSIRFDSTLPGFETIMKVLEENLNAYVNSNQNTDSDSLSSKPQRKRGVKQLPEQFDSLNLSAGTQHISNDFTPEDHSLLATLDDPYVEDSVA

B1: N3抗体 (N蛋白特异性单克隆抗体N3) (antibody, V domains shown)
VH: QMQLVQSGAEVKRPGSSVKVSCKASGGTFSVYAISWVRQAPGQGLEWMGGIIPIFGTANYAQKFQGRVTLTADESTSTAYMELSSLSSEDTAVYYCARGGYCSGANCPKWGEWSHSYNYMDVWGKGTTVTVSS
VL: not shown
B2: N83抗体 (N蛋白特异性单克隆抗体N83) (antibody, V domains shown)
VH: QVQLQESGPRLVKSSETLSLTCTVSGGSISSGSYYWNWIRQPAGKGLEWIGRVYISGVTSYNPSLKSRVTISLDISKNQFSLQLTSVTAADSAVYYCARGGMAVGAPLYYYFYGMDVWGQGTTVTVSS
VL: DVVMTQSPLSLPVTPGEPASISCRSSQSLLHSNGYNYVDWYLQKPGQSPQLMIYLGSNRASGVPDRFSGSGSGTHFTLKISRVEAEDVGVYYCMQALQTLSITFGQGTRLEIK
B3: 3B7抗体 (N蛋白特异性单克隆抗体3B7) (antibody, V domains shown)
VH: QMQLVQSGAEVKKPGASVRVSCKVSGYSLTELPMHWVRQAPGKGLEWVGSFDPQDAETTYAQRFQGRVAMTEDTSTDTAYMELSSLRSEDTAVYYCATPAPTIVGVVIYALHIWGQGTMVTVSS
VL: EIVLTQSPGTLSLSPGERATLSCRASQRVSDNSLAWYQQKPGQAPSLLIFAASIRAPGIPDRISGTGSGTDFTLTINRLEPEDFVVYFCLQYTTSPPLTFGGGTKLEIK
B4: N31抗体 (N蛋白特异性单克隆抗体N31) (antibody, V domains shown)
VH: QMQLVQSGAEVKKPGSSVKVSCKASGGTFSSYGISWVRQAPGQGLEWMGGIIPILGTANYAQRFQGRIALTADESTSTAYMEVSSLRSEDTAVYYCARGMWSNPPGYCCSYMDVWGKGTTVTVSS
VL: EIVLTQSPATLSVSPGERVTLACRASQSLRSKLAWYQQKPGQAPRLLIYDASTRATGFPARFSGSGSGTEFTLTISSLQSEDFAVYYCQQYSNWPRTFGQGTKLEIK
B5: N5抗体 (N蛋白特异性单克隆抗体N5) (antibody, V domains shown)
VH: QVQLVQSGAEVKKPGSSVKVSCKASGGTFSSYAIGWVRQAPGQGLEWMGAIIPIFGTTIFAQKFQGRVTITADESTTTAYMELSSLRSDDTAVYYCARGGGGVERGVILTRWFDPWGQGTLVTVSS
VL: QSVLTQPPSVSAAPGQKVTLSCSGSSSNIGNNHVSWYQQLPGTAPKLLIYDNNKRPSGIPDRFSGSKSGTSATLGITGLQTGDEADYYCGTWDNSLSAGVFGGGTKLTVV

Tests used:
SARS病毒N蛋白 = SARS病毒N蛋白 (SARS病毒 (SARS-CoV), UniProt P59595 1-422); assay: ELISA
人冠状病毒OC43 N蛋白 = biological target: T1, 人冠状病毒OC43 N蛋白; assay: ELISA
MERS病毒N蛋白 = MERS病毒N蛋白 (MERS病毒 (MERS-CoV), UniProt K9N4V7 1-411); assay: ELISA
人冠状病毒HKU1 N蛋白 = biological target: T2, 人冠状病毒HKU1 N蛋白; assay: ELISA
新型冠状病毒(SARS-CoV-2)N蛋白 = 新型冠状病毒(SARS-CoV-2)N蛋白 (SARS-CoV-2, UniProt P0DTC9 1-419)

Row | Binder | binding result (SARS病毒N蛋白) | binding result (人冠状病毒OC43 N蛋白) | binding result (MERS病毒N蛋白) | binding result (人冠状病毒HKU1 N蛋白) | Kd (新型冠状病毒(SARS-CoV-2)N蛋白)
1 | B1 | binds | no binding | no binding | no binding | 
2 | B2 | binds | no binding | no binding | no binding | 1.76 nM
3 | B3 | binds | no binding | no binding | no binding | 1.94 nM
4 | B4 | binds | no binding | no binding | no binding | < 0.001 nM
5 | B5 | binds | no binding | no binding | no binding | < 0.001 nM
